Data: patent US20040191840A1

Assays:
[1] = target: T1, natural human type I interferon receptor (IFN-R) on the surface of human cells (human) (UniProt P17181); assay: inhibition of binding of 125I-IFN alpha 2 (100 pM) to HL60 cells, 4 C; competitor: labelled IFN alpha 2
T1 sequence: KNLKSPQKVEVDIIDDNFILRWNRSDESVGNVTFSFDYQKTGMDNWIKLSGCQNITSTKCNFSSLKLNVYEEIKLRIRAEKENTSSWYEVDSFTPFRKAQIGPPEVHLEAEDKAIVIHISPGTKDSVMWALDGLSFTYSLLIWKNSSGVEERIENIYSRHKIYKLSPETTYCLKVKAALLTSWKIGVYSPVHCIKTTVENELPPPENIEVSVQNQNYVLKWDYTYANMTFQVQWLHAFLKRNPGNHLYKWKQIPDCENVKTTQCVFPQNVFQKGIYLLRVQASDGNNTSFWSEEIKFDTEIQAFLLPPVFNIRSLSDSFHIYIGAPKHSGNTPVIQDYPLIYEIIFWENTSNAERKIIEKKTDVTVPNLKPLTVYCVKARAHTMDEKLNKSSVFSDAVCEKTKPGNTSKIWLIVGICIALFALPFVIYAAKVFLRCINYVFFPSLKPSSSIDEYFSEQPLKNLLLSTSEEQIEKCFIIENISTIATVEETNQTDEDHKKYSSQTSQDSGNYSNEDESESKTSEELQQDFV

[2] = target: T1, natural human type I interferon receptor (IFN-R) on the surface of human cells (human); assay: inhibition of binding of 125I-IFN alpha 2 (100 pM) to Daudi cells, 4 C; competitor: labelled IFN alpha 2
[3] = target: T1, natural human type I interferon receptor (IFN-R) on the surface of human cells (human); assay: inhibition of binding of 125I-IFN alpha 2 (100 pM) to Ly28 cells, 4 C; competitor: labelled IFN alpha 2
[4] = target: T1, natural human type I interferon receptor (IFN-R) on the surface of human cells (human); assay: inhibition of binding of 125I-IFN alpha 2 (100 pM) to K562 cells, 4 C; competitor: labelled IFN alpha 2

- IC50 [1]: 11 µg/mL
- IC50 [2]: 0.4 µg/mL
- IC50 [3]: 60 µg/mL
- IC50 [4]: 0.4 µg/mL
B1: monoclonal antibody 64G12 (antibody, from another filing, IgG1, V domains shown)
VH: QVTLKESGPGILKPSQTLSLTCSFSGFSLSTSGMGIGWIRQPSGKGLEWLAHIWWDDDKYYNPSLKSQLTISRDTSTNQVFLNITSVDTVDTATYYCGRNYYPYDAWFDYWGQGTLVTVS
VL: EIVLTQSPTTMAASPGEKITITCSASSSINSNHLHWYQQKPGFSPKVLIYRTSILASGVPTRFSGSGSGTSYSLTIGTMEAEDVATYYCQQGSNIPFTFGSGTELEIKR
